The record followed here is patent US20220233667A1 (OXFORD UNIVERSITY INNOVATION, published 2022).

First the molecules themselves.
T1: PfRH5Nt: amino acids F25-K140 of PfRH5 (3D7) with C-terminal CD4d3+4, biotin acceptor peptide and His6 tags (Plasmodium falciparum (3D7))
T1 construct: also called recombinant PfRH5Nt
T1 chain: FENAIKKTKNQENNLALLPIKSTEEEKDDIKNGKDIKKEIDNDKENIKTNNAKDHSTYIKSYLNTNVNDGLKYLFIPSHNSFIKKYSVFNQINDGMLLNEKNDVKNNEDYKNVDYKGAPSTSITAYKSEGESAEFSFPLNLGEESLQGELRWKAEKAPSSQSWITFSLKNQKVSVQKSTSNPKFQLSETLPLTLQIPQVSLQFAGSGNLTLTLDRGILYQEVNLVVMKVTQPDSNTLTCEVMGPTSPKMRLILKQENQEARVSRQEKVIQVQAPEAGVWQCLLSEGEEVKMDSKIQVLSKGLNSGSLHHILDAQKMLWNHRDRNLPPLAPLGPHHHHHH

B1: R5.010 (antibody, V domains shown)
VH: EVQLVESGGGLVQPGGSLRLSCAASGFTFSSYWMSWVRQAPGKGLEWVANIKQDGSEKYYVDSVKGRFTISGDNAKNSLYLQMNSLRAEDTAVYYCARGASGYYYYNYGMDVWGQGTRVTVSS
VL: QPVLTQPPSVSVAPGQTARITCGGNNIGIKSVHWYQQKPGQAPVLVVYDDSDRPSGIPERFSGSNSANTATLTISRVEAGDEADYFCQVWDSSSDHPGVFGGGTKLTVLG
notes: also called mAb10
B2: R5.016 (antibody, V domains shown)
VH: QVQLVQSGAEVKKPGASVRVSCKASGYTFTSYGISWVRQAPGQGLEWMGWISGYDGNTNYAQKLQGRVTMTTDTSTSTAYMELRSLRSDDTAVYYCARDGPQVGDFDWQVYYYYGMDVWGQGTTVTVSS
VL: AIRMTQSPSTLSASVGDRVTITCRASQSINTWLAWYQQKPGKAPNLLISKASSLESGVPSRFSGSGSGTEFTLTISSLQPDDFATYFCQQYNSYLYTFGQGTKVEIRR
notes: also called mAb16
B3: R5.011 (antibody, V domains shown)
VH: EVQLVQSGSDLKKPGASVKVSCKASGYTFTSYAMNWVRQAPGQGLEWVGWINTNTGNPTYAQGFTGRFVFSLDTSVSTAYLQISSLKAEDTAVYYCARESPNYYDSSGYYSGYYFDYWGQGTLVTVSS
VL: SYELTQPPSVSVAPGQTATITCGGKNIGSKSVHWYQQKPGQAPVLVVYDDSDRPSGIPERFSGSNSGNTATLTISRVEAGDEADYYCQVWDSSSDHRVFGGGTKLTVLG
notes: also called mAb11
B4: R5.014 (antibody, V domains shown)
VH: EVQLVESGGGLVQPGRSLRLSCAASGFTFDDYAMHWVRQAPGKGLEWVSGISWNSASMDYADSVKGRFTISRDNAKNSLYLQMNSLRAEDTALYYCAKDPAPPYCGGDCYPSFDYWGQGTLVTVSS
VL: SYELTQPPSMSVAPGKTARITCGGNNIGSKSVHWYQQKPGQAPVLVIYYDSDRPSGIPERFSGSNSGNTATLTISRVEAGDEADYYCQVWDSSRDHVVFGGGTKLTVLG
notes: also called mAb14

The target of the assay is T1, PfRH5Nt: amino acids F25-K140 of PfRH5 …. Kind of assay: ELISA on coated PfRH5Nt. Background: ELISA stands for enzyme-linked immunosorbent assay.
On to B1, for which the binding result is “no binding (tested: 1000 ng/mL mAb)”. Under B2 stands “no binding (tested: 1000 ng/mL mAb)”. Under B3 stands “no binding (tested: 1000 ng/mL mAb)”. Under B4 stands “no binding (tested: 1000 ng/mL mAb)”.
